Measured values taken from patent publication US20260167731A1 (DOMAIN THERAPEUTICS, published 2026).

Molecular target: T1, CD20 (on B cells) (human, UniProt P11836)
T1 construct: native on the surface of B cells (CD3-CD19+) in PBMC of healthy donors; the sheet names the cell type only
T1 sequence (single chain, looked up): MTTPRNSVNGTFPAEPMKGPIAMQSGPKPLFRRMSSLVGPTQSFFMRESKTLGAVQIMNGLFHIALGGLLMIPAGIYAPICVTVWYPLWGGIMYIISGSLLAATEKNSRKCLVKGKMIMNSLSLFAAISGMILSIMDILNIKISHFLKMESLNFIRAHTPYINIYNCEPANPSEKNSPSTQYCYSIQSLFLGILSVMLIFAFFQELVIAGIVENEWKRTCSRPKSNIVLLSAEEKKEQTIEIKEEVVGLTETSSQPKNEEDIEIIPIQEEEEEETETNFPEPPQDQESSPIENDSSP
Test: flow cytometry on PBMC of healthy donors, B cell gate (CD3-CD19+), % of binding, mean of two donors

B1: Rituximab (antibody, V domains shown)
VH: QVQLQQPGAELVKPGASVKMSCKASGYTFTSYNMHWVKQTPGRGLEWIGAIYPGNGDTSYNQKFKGKATLTADKSSSTAYMQLSSLTSEDSAVYYCARSTYYGGDWYFNVWGAGTTVTVSA
VL: QIVLSQSPAILSASPGEKVTMTCRASSSVSYIHWFQQKPGSSPKPWIYATSNLASGVPVRFSGSGSGTSYSLTISRVEAEDAATYYCQQWTSNPPTFGGGTKLEIK
EC50 (read off the curve): ~0.1 µg/mL
